According to ChEMBL document CHEMBL2073902, “A functional study on polymorphism of the ATP-binding cassette transporter ABCG2: critical role of arginine-482 in methotrexate transport” (Biochem J, 2003):

Substrate: CN(Cc1cnc2nc(N)nc(N)c2n1)c1ccc(C(=O)N[C@@H](CCC(=O)O)C(=O)O)cc1
Test: TP_TRANSPORTER: uptake (vesicle) in membrane vesicle from ABCG2-expressing HEK-293 cells
Type: functional, cell membranes, HEK293

B1: Broad substrate specificity ATP-binding cassette transporter ABCG2 (Homo sapiens) (protein)
chain: MSSSNVEVFIPVSQGNTNGFPATASNDLKAFTEGAVLSFHNICYRVKLKSGFLPCRKPVEKEILSNINGIMKPGLNAILGPTGGGKSSLLDVLAARKDPSGLSGDVLINGAPRPANFKCNSGYVVQDDVVMGTLTVRENLQFSAALRLATTMTNHEKNERINRVIQELGLDKVADSKVGTQFIRGVSGGERKRTSIGMELITDPSILFLDEPTTGLDSSTANAVLLLLKRMSKQGRTIIFSIHQPRYSIFKLFDSLTLLASGRLMFHGPAQEALGYFESAGYHCEAYNNPADFFLDIINGDSTAVALNREEDFKATEIIEPSKQDKPLIEKLAEIYVNSSFYKETKAELHQLSGGEKKKKITVFKEISYTTSFCHQLRWVSKRSFKNLLGNPQASIAQIIVTVVLGLVIGAIYFGLKNDSTGIQNRAGVLFFLTTNQCFSSVSAVELFVVEKKLFIHEYISGYYRVSSYFLGKLLSDLLPMRMLPSIIFTCIVYFMLGLKPKADAFFVMMFTLMMVAYSASSMALAIAAGQSVVSVATLLMTICFVFMMIFSGLLVNLTTIASWLSWLQYFSIPRYGFTALQHNEFLGQNFCPGLNATGNNPCNYATCTGEEYLVKQGIDLSPWGLWKNHVALACMIVIFLTIAYLKLLFLKKYS
**Q.** Which Km does the source give for B1 here?
**A.** Its Km is 5.7 mM.
